Source: the supplement of paper PMC9732359
± gives the uncertainty stated by the source.

Test: protein stability index of a GFP-peptide fusion (yeast GPS) (PSI 1-4); higher = more stable; sorted into four equal gates, so the index is relative within each strain
Procedure, shortened: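 Tiled 17-residue yeast protein peptides were fused downstream of GFP in a plasmid that also expresses Cherry, and the pooled library was carried in yeast. Mid-log cultures in leucine-free medium were sorted into four equal gates by GFP/Cherry fluorescence ratio, and plasmids from each gate were PCR-amplified and Illumina-sequenced, with reads assigned to strains by barcodes. The protein stability index for each peptide was each gate's read frequency times its gate number, summed.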

Sequence | protein stability index (doa10∆) | protein stability index (pdr5∆) | protein stability index (san1∆) | protein stability index (ubr1∆)
FNGYNPEKKEMIQEVIV [FAS2] | 3.39 ± 0.086 | 3.46 ± 0.1 | 3.4 ± 0.08 | 3.4 ± 0.11
FNSFRRFKSQFLYVLIP [QCR8] | 1.63 ± 0.1 | 1.69 ± 0.069 | 1.56 ± 0.12 | 1.4 ± 0.054
FNVVDVGVDQLSIELEG [YJL039C/NUP192] | 3.49 ± 0.076 | 3.34 ± 0.058 | 3.29 ± 0.038 | 3.37 ± 0.049
FNYVQECPAIPIFNYIF [YJL039C/NUP192] | 1.9 ± 0.072 | 1.75 ± 0.056 | 1.88 ± 0.082 | 1.85 ± 0.042
FPEENIIDAKTRNEQTT [MCD1] | 3.29 ± 0.09 | 3.16 ± 0.057 | 3.19 ± 0.052 | 3.08 ± 0.054
FPPNLEKGENPSCVYNL [UBP6] | 2.79 ± 0.1 | 1.7 ± 0.088 | 1.15 ± 0.16 | 1.11 ± 0.064
FQAVIQKSINHPPDFKR [SNF2] | 2.8 ± 0.12 | 2.98 ± 0.19 | 3.02 ± 0.14 | 3.19 ± 0.11
FQDTLYKKIPLLGPTLE [QCR10] | 2.84 ± 0.13 | 2.94 ± 0.11 | 2.47 ± 0.18 | 2.95 ± 0.1
FRCKETHSYNFMRQNLE [RPC82] | 2.52 ± 0.078 | 1.88 ± 0.093 | 1.96 ± 0.093 | 2.44 ± 0.065
FSHPAHQQRMSRTAADI [YCG1] | 2.01 ± 0.07 | 2.15 ± 0.093 | 2.4 ± 0.074 | 2.13 ± 0.06
FSHSLTTILSFSSPAAL [NUT1] | 1.46 ± 0.031 | 1.38 ± 0.029 | 1.35 ± 0.063 | 1.32 ± 0.026
FSKFERSKSSHKNERRV [SKI6] | 3.16 ± 0.082 | 3.16 ± 0.08 | 3 ± 0.064 | 3.25 ± 0.07
FSNVELPQCIIPSSYIK [ARP7] | 2.38 ± 0.042 | 2.38 ± 0.041 | 2.28 ± 0.051 | 2.45 ± 0.032
FSQEALQYVVERVGKRT [FAS1] | 1.07 ± 0.091 | 1.24 ± 0.11 | – | 1.17 ± 0.09
FSSNLSYANHLEESDVE [YOR098C/NUP1] | 2.45 ± 0.087 | 2.22 ± 0.059 | 1.91 ± 0.082 | 1.89 ± 0.052
FSVRTKDSNKDVVVEGL [RPL10] | 2.14 ± 0.051 | 2.32 ± 0.055 | 2.13 ± 0.073 | 2.77 ± 0.054
FSYQEVEFKLPKELVPS [CDC53] | 2.13 ± 0.056 | 2.16 ± 0.045 | 2.07 ± 0.076 | 1.91 ± 0.047
FTGEKPIITGSTSTSSS [MED8] | 2.71 ± 0.062 | 2.7 ± 0.054 | 2.78 ± 0.052 | 2.13 ± 0.043
FTVDKKIAERSLLLKNY [SKP1] | 3.44 ± 0.15 | 3.11 ± 0.14 | 2.92 ± 0.14 | 3.38 ± 0.27
FVFQTVFDTAITSWYEN [QCR9] | 1.66 ± 0.054 | 1.6 ± 0.039 | 1.74 ± 0.077 | 1.97 ± 0.044
FVIGEQGKPYISLPKGK [RPS4A] | 3.34 ± 0.068 | 3.21 ± 0.065 | 3.25 ± 0.051 | 2.41 ± 0.053
FVKNIRMLSFEDISKAT [RPN9] | 2.66 ± 0.063 | 1.86 ± 0.076 | 1.91 ± 0.078 | 1.93 ± 0.053

Sequence | protein stability index (doa10∆) | protein stability index (pdr5∆) | protein stability index (san1∆) | protein stability index (ubr1∆)
FVLLEIEPVTKVSSLKM [YCS4] | 2.34 ± 0.049 | 2.18 ± 0.066 | 2.48 ± 0.059 | 2.35 ± 0.054
FWSFLDSLIFKDSSLNY [YJL039C/NUP192] | 3.22 ± 0.076 | 2.74 ± 0.078 | 2.11 ± 0.15 | 2.46 ± 0.079
FYDYIKERSIVVGRTTR [REC8] | 1.9 ± 0.077 | 1.72 ± 0.064 | 1.22 ± 0.13 | 1.17 ± 0.045
FYGVLDQGNGWLYVYET [RPN6] | 2.9 ± 0.095 | 2.65 ± 0.073 | 1.9 ± 0.095 | 3.02 ± 0.071
FYQQVHKKDRLQYLPLY [SIR4] | 1.64 ± 0.063 | 1.77 ± 0.058 | 1.75 ± 0.11 | 1.67 ± 0.048
GAETDELSMIMEHFSQQ [RPS12] | 2.88 ± 0.088 | 3.25 ± 0.1 | 3.35 ± 0.059 | 3.23 ± 0.089
GAFTIALAYAGTGNNSA [RPN2] | 2.09 ± 0.068 | 2.32 ± 0.083 | 1.99 ± 0.099 | 2.15 ± 0.053
GAGGLNPFTSATSSTNA [YOR098C/NUP1] | 2.04 ± 0.12 | 2.07 ± 0.18 | 2.69 ± 0.18 | 2.94 ± 0.13
GAGIERELARIKKYASV [RPL3] | 3.49 ± 0.21 | 3.46 ± 0.17 | – | –
GAQFSRSYDLTRHQNTI [RPN4] | 1.16 ± 0.12 | 1.67 ± 0.11 | 1.85 ± 0.18 | 2.53 ± 0.099
GATKIVREHYLRSDIPC [DIS3] | 2.67 ± 0.069 | 2.63 ± 0.067 | 2.1 ± 0.093 | 2.43 ± 0.054
GCENPADVFRRCLVAVI [SRP72] | 1.93 ± 0.055 | 1.48 ± 0.048 | 2.29 ± 0.088 | 1.98 ± 0.077
GCLIKNLPRTKAKSVVN [RMP1] | 2 ± 0.11 | 2.52 ± 0.2 | 1.92 ± 0.17 | 2.13 ± 0.12
GCLNFVDENDEVLLAGF [RPS23A] | 1.3 ± 0.083 | 1.53 ± 0.074 | 1.5 ± 0.095 | 1.27 ± 0.068
GDANNRWDKEEYQSLMS [SMC1] | 3.36 ± 0.21 | 3.03 ± 0.29 | 3.05 ± 0.28 | 3.21 ± 0.073
GDDEATEIISTLSNGLI [BRR2] | 3.32 ± 0.099 | 3.1 ± 0.13 | 3.42 ± 0.096 | 3.11 ± 0.21
GDFGGWFCPCHGSHYDI [RIP1] | 2.87 ± 0.15 | 3.11 ± 0.078 | 3 ± 0.058 | 3.18 ± 0.082
GDKEATAPLIQRKNKKN [RPN8] | 3.22 ± 0.15 | 3.42 ± 0.12 | 3.18 ± 0.088 | 3.15 ± 0.18
GDPALVYKFMSLAKSSA [ECM29] | 3.22 ± 0.11 | 2.77 ± 0.08 | 2.54 ± 0.089 | 3.09 ± 0.054
GDYGEEEDADQEESFSL [SRB8] | 3.76 ± 0.28 | 3.63 ± 0.17 | – | –
GDYGSAKCNSLLQLKYF [POP5] | 2.31 ± 0.049 | 2.24 ± 0.056 | 2.23 ± 0.067 | 2.59 ± 0.071
GEAEAEKEEEEAKEESD [RPP1A] | 2.13 ± 0.22 | 3.51 ± 0.15 | 2.54 ± 0.16 | 3.52 ± 0.14
